Laboratory results taken from patent US20240327495A1 (OXFORD UNIVERSITY INNOVATION, published 2024).

Legend:
[1] = target: T1, C. difficile toxin B glucosyltransferase domain (GTD, residues 2-543) (Clostridium difficile, UniProt P18177 2-543); test: SPR, kinetic analysis, biotinylated AviTag-His6-GTD captured on the chip
T1 construct: range 2-543; also called AviTag-His6-GTD; TcdB GTD

hen egg lysozyme (HEL) = hen egg lysozyme (HEL) (hen, UniProt P00698 19-147); test: ELISA, antigen-coated wells, 500 nM gastrobody, detected with polyclonal anti-SBTI antibody
[2] = target: T2, combined repetitive oligopeptide domain of C. difficile toxin A (residues 2304-2710, CROP) (Clostridium difficile, UniProt P16154 2304-2710); test: ELISA on antigen-coated wells, anti-SBTI antibody detection
T2 construct: range 2304-2710; also called AviTag-His6-CROP; TcdA CROP

trypsin = target: T3, trypsin (cow, UniProt P00760 24-246); test: plate assay, trypsin-coated wells, bound gastrobody detected with biotinylated GTD and streptavidin-HRP
T3 construct: also called trypsin from cow pancreas (T1426, Merck)

[3] = target: T1, C. difficile toxin B …
[4] = target: T1, C. difficile toxin B …; test: SPR, GTD
[5] = target: T1, C. difficile toxin B …; test: SPR, immobilised GTD
[6] = target: T2, combined repetitive oligopeptide domain …; test: SPR, equilibrium analysis, biotinylated AviTag-His6-CROP captured on the chip
[7] = target: T1, C. difficile toxin B …; test: ELISA on antigen-coated wells, anti-SBTI antibody detection
[8] = target: T1, C. difficile toxin B …; test: SPR, immobilised GTD; remark: listed apart in the source

B1: anti-GTD gastrobody GT01 (designed binder, not shown: small tags and cut ends)
chain: DFVLDNEGNPLENGGTYYILSDYGRQLFGGIRAAPTGNERCPLTVVQSLFRNHRDKGIGTIISSPYRIRFIAEGHPLSLKFDSFAVIMLCVGIPTEWSVVEDLPEGPAVKIGENKDAMDGWFRLERVSDDEFNNYKLVFCPQQAEDDKCGDIGISIDHDDGTRRLVVSKNKPLVVQFQKLDKESL
notes: also called anti-GTD (GT01); His6-Thrombin site-SpyTag003-GT01
- Kd [1]: 85 nM
- koff [1]: 0.036 s⁻¹
- kon [1]: 420000 M⁻¹ s⁻¹
- binding result (hen egg lysozyme (HEL)): no binding (tested: 500 nM)
- binding result [2]: no binding (tested: 500 nM gastrobody)
- EC50 (read off the curve) (trypsin): ~20 nM
- EC50 (read off the curve) [3]: ~7 nM

B2: GT01 R63A (designed binder, not shown: small tags and cut ends)
chain: DFVLDNEGNPLENGGTYYILSDYGRQLFGGIRAAPTGNERCPLTVVQSLFRNHRDKGIGTIISSPYAIRFIAEGHPLSLKFDSFAVIMLCVGIPTEWSVVEDLPEGPAVKIGENKDAMDGWFRLERVSDDEFNNYKLVFCPQQAEDDKCGDIGISIDHDDGTRRLVVSKNKPLVVQFQKLDKESL
- Kd [4]: 78.7 nM
- binding result (trypsin): no binding (tested: 200 nM)

B3: anti-GTD gastrobody GT44 (designed binder, not shown: small tags and cut ends)
chain: DFVLDNEGNPLENGGTYYILSDYGRQLFGGIRAAPTGNERCPLTVVQSLFRNHRDKGIGTIISSPYRIRFIAEGHPLSLKFDSFAVIMLCVGIPTEWSVVEDLPEGPAVKIGENKDAMDGWFRLERVNPSNGNNYKLVFCPQQAEDDKCGDIGISIDHDDGTRRLVVSKNKPLVVQFQKLDKESL
- Kd [5]: 17.4 nM
- koff [5]: 0.022 s⁻¹
- kon [5]: 1.3e+06 M⁻¹ s⁻¹

B4: anti-CROP gastrobody G9 (designed binder, not shown: small tags and cut ends)
chain: DFVLDNEGNPLENGGTYYILSHPDLFGGIRAAPTGNERCPLTVVQSLYLFDKGIGTIISSPYRIRFIAEGHPLSLKFDSFAVIMLCVGIPTEWSVVEDLPEGPAVKIGENKDAMDGWFRLERVSDDEFNNYKLVFCPQQAEDDKCGDIGISIDHDDGTRRLVVSKNKPLVVQFQKLDKESL
- Kd [6]: 4600 nM

B5: anti-CROP gastrobody G22 (designed binder, not shown: small tags and cut ends)
chain: DFVLDNEGNPLENGGTYYILSLQNRFGGIRAAPTGNERCPLTVVQSHDFMDKGIGTIISSPYRIRFIAEGHPLSLKFDSFAVIMLCVGIPTEWSVVEDLPEGPAVKIGENKDAMDGWFRLERVSDDEFNNYKLVFCPQQAEDDKCGDIGISIDHDDGTRRLVVSKNKPLVVQFQKLDKESL
- Kd [6]: ~50000 nM

B6: anti-CROP gastrobody T12 (designed binder, not shown: small tags and cut ends)
chain: DFVLDNEGNPLENGGTYYILSIAGTFGGIRAAPTGNERCPLTVVQSLVFPDKGIGTIISSPYRIRFIAEGHPLSLKFDSFAVIMLCVGIPTEWSVVEDLPEGPAVKIGENKDAMDGWFRLERVSDDEFNNYKLVFCPQQAEDDKCGDIGISIDHDDGTRRLVVSKNKPLVVQFQKLDKESL
notes: also called anti-CROP clone T12; anti-CROP (T12)
- Kd [6]: 1700 nM
- binding result (hen egg lysozyme (HEL)): no binding (tested: 500 nM)
- binding result [7]: no binding (tested: 500 nM gastrobody)

B7: anti-CROP gastrobody T42 (designed binder, not shown: small tags and cut ends)
chain: DFVLDNEGNPLENGGTYYILSVPHQFGGIRAAPTGNERCPLTVVQSRNKWDKGIGTIISSPYRIRFIAEGHPLSLKFDSFAVIMLCVGIPTEWSVVEDLPEGPAVKIGENKDAMDGWFRLERVSDDEFNNYKLVFCPQQAEDDKCGDIGISIDHDDGTRRLVVSKNKPLVVQFQKLDKESL
- Kd [6]: 7300 nM

B8: anti-GTD gastrobody GT47 (designed binder, not shown: small tags and cut ends)
chain: DFVLDNEGNPLENGGTYYILSDYGRQLFGGIRAAPTGNERCPLTVVQSLFRNHRDKGIGTIISSPYRIRFIAEGHPLSLKFDSFAVIMLCVGIPTEWSVVEDLPEGPAVKIGENKDAMDGWFRLERVRPTSSTGNNYKLVFCPQQAEDDKCGDIGISIDHDDGTRRLVVSKNKPLVVQFQKLDKESL
- fold improvement of affinity against GT01 [8]: ~8 fold
- Kd [5]: 10.3 nM
- koff [5]: 0.022 s⁻¹
- kon [5]: 2.1e+06 M⁻¹ s⁻¹
